We go through one molecule from publication PMC4005650.

Test [1] has as its target T1, LtrA, intron-encoded protein (IEP) of the Lactococcus lactis Ll.LtrB group II intron (Lactococcus lactis), P0A3U0.
T1 chain: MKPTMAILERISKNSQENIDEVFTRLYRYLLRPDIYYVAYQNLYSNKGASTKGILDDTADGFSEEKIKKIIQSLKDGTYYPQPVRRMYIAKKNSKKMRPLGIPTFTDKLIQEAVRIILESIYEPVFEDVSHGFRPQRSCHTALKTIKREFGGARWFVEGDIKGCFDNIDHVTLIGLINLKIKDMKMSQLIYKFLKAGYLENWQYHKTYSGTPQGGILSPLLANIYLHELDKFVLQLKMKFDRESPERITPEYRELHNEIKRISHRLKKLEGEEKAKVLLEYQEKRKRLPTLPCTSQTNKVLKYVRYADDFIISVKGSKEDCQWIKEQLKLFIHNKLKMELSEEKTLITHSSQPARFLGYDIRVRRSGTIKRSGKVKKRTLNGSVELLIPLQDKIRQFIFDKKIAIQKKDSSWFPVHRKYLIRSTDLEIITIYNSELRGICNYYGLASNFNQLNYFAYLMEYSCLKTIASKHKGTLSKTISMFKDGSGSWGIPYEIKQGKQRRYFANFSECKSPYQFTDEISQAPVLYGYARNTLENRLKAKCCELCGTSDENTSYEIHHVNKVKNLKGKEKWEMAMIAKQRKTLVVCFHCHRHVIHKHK
As to the kind of experiment: AUC; sedimentation velocity of purified +A RNP at 7-14 ng/µl; 4°C; 28 000 rpm; 20 mM Tris pH 7.4, 200 mM KCl, 5 mM MgCl2; absorbance at 260 nm; SEDFIT. Conditions: remark: other sources report otherwise.

Test [2] addresses T1, LtrA, intron-encoded protein (IEP) of …. Kind of test: SEC-MALS; purified +A RNP (LtrA with 902 nt intron lariat RNA) on Superdex 200 10/300 GL; 20 mM Tris pH 7.4, 200 mM KCl, 5 mM MgCl2; room temperature; mass-averaged dn/dc 0.182 ml/g. Conditions: remark: other sources report otherwise. (In general: In gel filtration, larger molecules generally elute earlier.)

B1: LtrA, intron-encoded protein (IEP) of the Lactococcus lactis Ll.LtrB group II intron, P0A3U0 1-599 (natural protein)
chain: T1 chain
One may read the stoichiometry N as a count of units in the complex or per binding partner. Take B1: the stoichiometry N in test [1] and in test [2] was 2 each time.
